Reference: article doi:10.1101/2021.09.16.460650 (bioRxiv, 2021)

Target: the molecule itself
Assay: non-reducing SDS-PAGE with western blot

Protein | stoichiometry N
N-terminally arginylated calreticulin (natural protein, human (endogenous in DLD-1), UniProt P27797 18-417, looked up, arginyl group added at the mature (signal sequence removed) NH2-terminus, Glu-18) REPAVYFKEQFLDGDGWTSRWIESKHKSDFGKFVLSSGKFYGDEEKDKGLQTSQDARFYALSASFEPFSNKGQTLVVQFTVKHEQNIDCGGGYVKLFPNSLDQTDMHGDSEYNIMFGPDICGPGTKKVHVIFNYKGKNVLINKDIRCKDDEFTHLYTLIVRPDNTYEVKIDNSQVESGSLEDDWDFLPPKKIKDPDASKPEDWDERAKIDDPTDSKPEDWDKPEHIPDPDAKKPEDWDEEMDGEWEPPVIQNPEYKGEWKPRQIDNPDYKGTWIHPEIDNPEYSPDPSIYAYDNFGVLGLDLWQVKSGTIFDNFLITNDEAYAEEFGNETWGVTKAAEKQMKDKQDEEQRLKEEEEDKKRKEEEEAEDKEDDEDKDEDEEDEEDKEEDEEEDVPGQAKDEL | 2
calreticulin (natural protein, human (endogenous in DLD-1), UniProt P27797 18-417, looked up) EPAVYFKEQFLDGDGWTSRWIESKHKSDFGKFVLSSGKFYGDEEKDKGLQTSQDARFYALSASFEPFSNKGQTLVVQFTVKHEQNIDCGGGYVKLFPNSLDQTDMHGDSEYNIMFGPDICGPGTKKVHVIFNYKGKNVLINKDIRCKDDEFTHLYTLIVRPDNTYEVKIDNSQVESGSLEDDWDFLPPKKIKDPDASKPEDWDERAKIDDPTDSKPEDWDKPEHIPDPDAKKPEDWDEEMDGEWEPPVIQNPEYKGEWKPRQIDNPDYKGTWIHPEIDNPEYSPDPSIYAYDNFGVLGLDLWQVKSGTIFDNFLITNDEAYAEEFGNETWGVTKAAEKQMKDKQDEEQRLKEEEEDKKRKEEEEAEDKEDDEDKDEDEEDEEDKEEDEEEDVPGQAKDEL | 2
